Assay results as given in patent publication CN114106160A (ANYUAN MEDICINE SCIENCE AND TECH SHANGHAI LIMITED COMPANY, dated 2022).
Where two headings read alike, the source gives them in different places.

Experiments:
刺突S-鼠Fc融合蛋白(S-mFc) [1] = molecular target: 刺突S-鼠Fc融合蛋白(S-mFc) (SARS-CoV-2; mouse, UniProt P0DTC2 14-1213); assay: flow cytometry, antibody blocks binding of S-mFc to 293T-ACE2 cells
[2] = molecular target: SARS-CoV-2 S1蛋白 (ACRO Biosystems) (SARS-CoV-2, UniProt P0DTC2 16-685); assay: BLI, biotinylated SARS-CoV-2 S1 on SA sensor, antibody as analyte, 1:1 model
[3] = molecular target: T1, SARS-CoV-2 S1蛋白 (ACRO Biosystems) (SARS-CoV-2, UniProt P0DTC2 16-685)
[4] = molecular target: T1, SARS-CoV-2 S1蛋白 (ACRO Biosystems); assay: BLI, biotinylated SARS-CoV-2 S1 on SA sensor, antibody as analyte, 1:1 model
刺突S-鼠Fc融合蛋白(S-mFc) [5] = molecular target: T2, 刺突S-鼠Fc融合蛋白(S-mFc) (SARS-CoV-2; mouse, UniProt P0DTC2 14-1213); assay: flow cytometry, antibody blocks binding of S-mFc to 293T-ACE2 cells
T2 construct: domain: S蛋白全长区段

B1: 鼠源抗体S1B-48-2 (antibody, V domains shown)
VH: EVQLQQSGPELEKPGASVKMSCKASGYTFTNYVMHWVKQKPGQGLEWIGYFNPYNDDAEYNEKFKGKATLTSDKSSSTAYMVLSSLTSEDSAVYYCACLRQETDYWGQGTTLTVSS
VL: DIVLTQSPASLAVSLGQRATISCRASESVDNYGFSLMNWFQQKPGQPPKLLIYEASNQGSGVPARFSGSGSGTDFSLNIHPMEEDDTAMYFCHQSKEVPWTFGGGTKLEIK
Question: With B1 as the binder, how does the IC50 (刺突S-鼠Fc融合蛋白(S-mFc) [1]) read?
Answer: 0.0108 mg/L

Question: And the Kd [2]?
Answer: 0.0156 nM

Question: And the koff [2]?
Answer: 4.27e-06 s⁻¹

Question: What about the kon [2] of the same binder?
Answer: 273000 M⁻¹ s⁻¹

B2: 人源化抗体hS1B-48-2 (antibody, V domains shown)
VH: EVQLVQSGAEVKKPGASVKVSCKASGYTFTNYVMHWVRQAPGKGLEWIGYFNPYNDDAEYNEKFKGKATLTSDKSTSTAYMKLSSLRSEDTAVYYCASLRQETDYWGQGTTLTVSS
VL: DIVLTQSPSSLAVSLGERATINCRASESVDNYGFSLMNWFQQKPGKPPKLLIYEASNQGSGVPARFSGSGSGTDFTLKISRLQAEDVAVYFCHQSKEVPWTFGGGTKLEIKR
Question: How did the EC50 [3] turn out when B2 was run?
Answer: 0.0197 mg/L

Question: And the Kd [4]?
Answer: 0.00113 nM

Question: What about the koff [4] of the same binder?
Answer: 9.81e-07 s⁻¹

Question: What about the kon [4] of the same binder?
Answer: 867000 M⁻¹ s⁻¹

Question: And the IC50 (刺突S-鼠Fc融合蛋白(S-mFc) [5])?
Answer: 0.00582 mg/L

B3: 鼠源抗体S1B-64-2 (antibody, V domains shown)
VH: EVQLQQSGPELEKPGASVKMSCKASGYTFTNYVMHWVKQKPGQGLEWIGYFNPYNDGTKYNEKFKGKATLTSDKSSSTAYMELSSLTSEDSAVYYCACLRQRADYWGQGTTLTVSS
VL: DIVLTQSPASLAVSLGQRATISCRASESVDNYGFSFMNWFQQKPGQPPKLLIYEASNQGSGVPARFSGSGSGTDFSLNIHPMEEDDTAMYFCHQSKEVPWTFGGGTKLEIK
Question: Which results are given for B3?
Answer: Kd [2]: 0.091 nM; koff [2]: 4.43e-05 s⁻¹; kon [2]: 487000 M⁻¹ s⁻¹
